Among the data in patent US20100279930A1 (published 2010) are IC50 values, retold here.

No end group written: not given here.

B1: compound of SEQ ID NO:259 (code 4055713) (peptide)
peptide: APLEPVYPGDNATPEQMAQYAADLRRYINILTRPRY
modifications: ends and bridges not checked
B2: compound of SEQ ID NO:277 (Ala 23, code 4055747) (peptide)
peptide: APLEPVYPGDNATPEQMAQYAAALRRYINMLTRPRY
B3: 4058699 (peptide)
chain: HAPLEPHYPGDNATPEEMAKYAAELRRYINKLTRPRY
B4: 4058671 (peptide)
chain: PAPLEPKYPGDNATPEELAKYAAELRRYINKLTRPRY
B5: 4058689 (peptide)
chain: AAPLEPKYPGDNATPEELAKYAAELRRYINKLTRPRY
B6: 4058668 (peptide)
chain: PAPLEPKAPGDNATPEQMAKYAAELRRYINKLTRPRY
B7: 4058691 (peptide)
chain: GAPLEPKYPGDNATPEELAKYAAELRRYINKLTRPRY
B8: 4058709 (peptide)
chain: PAPLEPKYPGDDATPEELAHYYSELRRYINKLTRPRY
B9: 4058708 (peptide)
chain: AAPLEPKYPGDDATPEELAHYYSELRRYINKLTRPRY
B10: 4058707 (peptide)
chain: APLEPKYPGDDATPEELAHYYSELRRYINKLTRPRY
B11: 4058703 (peptide)
chain: APLEPHYPGDNATPEELAKYAAELRRYINKLTRPRY
B12: 4058696 (peptide)
chain: APLEPHYPGDNATPEEMAKYAAELRRYINKLTRPRY
B13: 4058676 (peptide)
chain: PLEPEYPGDNATPEEMAKYAAALRRYINKLTRPRY
B14: 4058674 (peptide)
chain: PLEPEYPGDNATPEEMARYAAELRRYINKLTRPRY
B15: 4058675 (peptide)
chain: PLEPEYPGDNATPEEMAKYAADLRRYINKLTRPRY
B16: 4058677 (peptide)
chain: PLEPEYPGDNATPEELAKYAAELRRYINKLTRPRY
B17: 4058706 (peptide)
chain: PLEPKYPGDDATPEELAHYYSELRRYINKLTRPRY
B18: compound of SEQ ID NO:53 (code 6650) (peptide)
peptide: HAPLEPVYPGDNATPEQMAQYAADLRRYINMLTRPRY
B19: compound of SEQ ID NO:52 (code 6647) (peptide)
peptide: KAPLEPVYPGDNATPEQMAQYAADLRRYINMLTRPRY
B20: 6651 (peptide)
chain: EAPLEPVYPGDNATPEQMAQYAADLRRYINMLTRPRY
B21: 6652 (peptide)
chain: DAPLEPVYPGDNATPEQMAQYAADLRRYINMLTRPRY
B22: compound of SEQ ID NO:56 (code 6653) (peptide)
peptide: PAPLEPVYPGDNATPEQMAQYAADLRRYINMLTRPRY
B23: 6656 (peptide)
chain: AAPLEPVYPGDNATPEQMAQYAADLRRYINLLTRPRY
B24: 6622 (peptide)
chain: APLEPVYPGDNATEEELVKYFIDLRRYINMLTRPRY
B25: 6621 (peptide)
chain: APLEPVYPGDNATEEEAVRLFIDLRRYINMLTRPRY
B26: 6429 (peptide)
chain: APLEPVYPGDNATPEQLAQYAADLRRYINMLTRPRY
B27: 6638 (peptide)
chain: APLEPVYPGDNATPEQTAQYAADLRRYINTLTRPRY
B28: 6449 (peptide)
chain: APLEPVYPGDNATPEQMAQYAADLRRYINMLTRPAY
B29: 6452 (peptide)
chain: APLEPVYPGDNATPEQMAQYAADLRRYINMLTKPRY
B30: 6606 (peptide)
chain: APLEPVYPGDNATPEQMARYAADLRRYINMLTRPRY
B31: 6640 (peptide)
chain: APLEPVYPGDNATPEQMAHYYASLRRYINMLTRPRY
B32: 6465 (peptide)
chain: APLEPVYPGDNATPEQMAQYAKDLRRYINMLTRPRY
B33: 6434 (peptide)
chain: KPLEPVYPGDNATPEQMAQYAADLRRYINMLTRPRY
B34: 6457 (peptide)
chain: APLEPVYPGDDATPQQMAQYAAELRRYINMLTRPRY
B35: 6605 (peptide)
chain: APLEPFYPGDNATPEQMAQYAAALRRYINMLTRPRY
B36: 6636 (peptide)
chain: GPLEPVYPGDNATPEQMAQYAADLRRYINMLTRPRY
B37: 6436 (peptide)
chain: KPLEPVYPGDNATPEQMAQYAADLRRYINMLTRPRY
B38: 6431 (peptide)
chain: APLEPVYPGDNATPEQMAQYAADLRKYINMLTRPRY
B39: 6458 (peptide)
chain: APLEPEYPGDNATPEQMAQYAAELRRYINMLTRPRY
B40: 6466 (peptide)
chain: APLEPVYPGDNATPEKMAQYAADLRRYINMLTRPRY
B41: 6443 (peptide)
chain: APLKPVYPGDNATPEQMAQYAADLRRYINMLTRPRY
B42: 6432 (peptide)
chain: APLEPVYPGDNATPEQMAQYAADLKRYINMLTRPRY
B43: 6438 (peptide)
chain: APLEPVYPGDNATPEQMAQYAADLRHYINMLTRPRY
B44: 5920 (peptide)
chain: APLKPVYPGDNATPEQMAQYAADLRRYINMLTRPRY
B45: 6440 (peptide)
chain: APLEPVYPGDYATPEQMAQYAADLRRYINMLTRPRY
B46: 6441 (peptide)
chain: APLEPVYPGDNATHEQMAQYAADLRRYINMLTRPRY
B47: 6430 (peptide)
chain: APLEPVYPGDNATPEQMAQYAADLRRYINLLTRPRY
B48: 6437 (peptide)
chain: APLEPVYPGDNATPEQMAQYAADLRRYINTLTRPRY
B49: 6450 (peptide)
chain: APLEPVYPGDNATPEQMAQYAADLRRYINMLTAPRY
B50: compound of SEQ ID NO:11 (code 6435) (peptide)
peptide: KPLEPVYPGDNATPEQMAQYAADLRRYINMLTRPRY
modifications: not fully specified; lauryl-lysine at position 1 (replaces Ala 1)
B51: 6463 (peptide)
chain: APKEPVYPGDNATPEQMAQYAADLRRYINMLTRPRY
B52: 6462 (peptide)
chain: APLEPVYPGDNATPEQMARYYASLRHYLNMLTRPRY
B53: 6655 (peptide)
chain: AAAPLEPVYPGDNATPEQMAQYAADLRRYINMLTRPRY
B54: 6460 (peptide)
chain: APLEPVYPGDNATPEELNRYYASLRRYINMLTRPRY

T1 sequence (P50391 whole entry): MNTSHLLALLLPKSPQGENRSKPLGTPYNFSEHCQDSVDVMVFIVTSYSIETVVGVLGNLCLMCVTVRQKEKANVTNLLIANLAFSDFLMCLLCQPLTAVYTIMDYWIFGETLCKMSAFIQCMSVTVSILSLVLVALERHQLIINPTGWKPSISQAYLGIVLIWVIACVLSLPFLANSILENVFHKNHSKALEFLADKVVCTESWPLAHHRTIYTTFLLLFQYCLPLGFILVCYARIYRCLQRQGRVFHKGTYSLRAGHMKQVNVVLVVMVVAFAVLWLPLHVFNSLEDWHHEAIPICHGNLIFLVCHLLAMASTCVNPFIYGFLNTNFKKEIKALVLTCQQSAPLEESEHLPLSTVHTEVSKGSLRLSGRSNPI

The first test concerns the target T1, human Y4 receptor (human, UniProt P50391 1-375). Put plainly: 125I-PP displacement.
As to B1, the IC50 (commonly the concentration at which inhibition is half-maximal) stood at 0.22 nM.
On to B2, for which the IC50 is 0.079 nM.

The target in a further test is T1, human Y4 receptor. The test can be described thus: 125I-PP displacement. This is another data set of the same source.
Regarding B3, the IC50 turned out to be 0.092 nM.
In turn, B4 showed an IC50 of 0.105 nM.
B5 displayed an IC50 of 0.098 nM.
B6 had an IC50 of 0.074 nM.
Still for that read-out and setting: as for B7, the figure is 0.098 nM.
On to B8, for which the IC50 amounted to 0.083 nM.
The same measure, in the same setting: as for B9, the figure is 0.079 nM.
B10 returned an IC50 of 0.089 nM.
As for B11, the IC50 turned out to be 0.059 nM.
On the same count and under the same terms, as for B12, the figure is 0.045 nM; as for B13, 0.061 nM; as for B14, 0.082 nM.
The same measure, in the same setting: as for B15, the figure is 0.095 nM; as for B16, 0.138 nM; as for B17, 0.084 nM.

For the next test, the target named is T1, human Y4 receptor. Put plainly: 125I-PP displacement. This is another data set of the same source.
B18 returned an IC50 of 0.17 nM.
B19 returned an IC50 of 0.21 nM. The IC50 values of the last two molecules are within 1.5-fold of each other.
Same read-out and setting: as for B20, the figure is 0.35 nM; as for B21, 0.36 nM.
B22 came in with an IC50 of 0.21 nM.
For B23, the IC50 is 0.22 nM.
The molecule B24 registered an IC50 of 1.2 nM.
B25 returned an IC50 of 16 nM.
B26: the IC50 came out at 0.55 nM.
For B27, the IC50 was 0.5 nM.
In turn, B28 returned an IC50 of 2.2 nM.
For the molecule B29, the half-maximal inhibitory concentration (IC50) was determined as 0.42 nM.
For the molecule B30, the IC50 was found to be 0.16 nM.
Molecule B31 registered an IC50 of 0.15 nM. This IC50 and that of the molecule before are within 1.5-fold of each other.
In turn, B32 had an IC50 of 0.85 nM.
Take B33: the concentration for half-maximal inhibition (IC50) is 0.25 nM.
The same measure, in the same setting: as for B34, the figure is 0.13 nM; as for B35, 0.13 nM; as for B36, 0.6 nM.
Molecule B37 had a concentration for half-maximal inhibition (IC50) of 0.48 nM.
Molecule B38 came in with an IC50 of 0.47 nM.
Turning to B39, the IC50 came out at 0.18 nM.
Same read-out and setting: as for B40, the figure is 1.29 nM.
As for B41, the IC50 turned out to be 4 nM.
Turning to B42, the IC50 was 0.36 nM. Compared with the last molecule, the IC50 is about 11-fold lower.
Molecule B43 returned an IC50 of 0.49 nM.
The same measure, in the same setting: as for B44, the figure is 4.5 nM; as for B45, 0.26 nM; as for B46, 0.3 nM.
For the molecule B47, the IC50 was 0.41 nM.
With B48, the IC50 worked out at 0.3 nM.
Take B49: the 50% inhibitory concentration (IC50) was determined as 8.8 nM.
B50 came in with an IC50 of 0.13 nM. This IC50 is about 68-fold lower than that of the molecule before.
B51 displayed an IC50 of 0.67 nM. Against the preceding molecule, the IC50 is about 5.2-fold higher.
B52 registered an IC50 of 0.18 nM.
In turn, B53 had an IC50 of 0.28 nM.
The same measure, in the same setting: as for B54, the figure is 0.2 nM.
